Tests used:
[1] = target: SadA, N-substituted L-amino acid dioxygenase from Burkholderia ambifaria AMMD (Burkholderia ambifaria AMMD); assay: SEC; Superdex 200 size-exclusion chromatography; calibrated with ovalbumin (43 kDa) and conalbumin (75 kDa)
SadA = target: T1, SadA (Burkholderia ambifaria, UniProt Q0B2N4); assay: X-ray crystal structure, […] Å; type: binding; conditions: Zn(II) in place of Fe(II); cocrystallized with 10 mM α-KG; 0.1 M CHES pH 9.5, 30% PEG 3,000, 293 K; active site, chain A, bidentate to the metal
T1 construct: gene Bamb_6045; dimer
T1 sequence (Q0B2N4 1-273): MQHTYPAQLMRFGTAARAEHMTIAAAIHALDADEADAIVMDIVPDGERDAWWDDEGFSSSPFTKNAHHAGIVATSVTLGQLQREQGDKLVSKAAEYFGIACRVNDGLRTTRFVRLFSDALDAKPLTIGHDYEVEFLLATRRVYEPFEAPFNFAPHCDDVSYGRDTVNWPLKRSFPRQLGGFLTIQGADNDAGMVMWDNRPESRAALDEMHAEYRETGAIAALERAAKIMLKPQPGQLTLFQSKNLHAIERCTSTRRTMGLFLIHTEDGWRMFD

stoichiometry N [1] | Compound | X-ray crystal structure, 1.98 Å (SadA)
2 | SadA, N-substituted L-amino acid dioxygenase from Burkholderia ambifaria AMMD (enzyme) | –
– | O=C(O)CCC(=O)C(=O)O [α-KG] | only one α-KG molecule is clearly observed in chain A of the SadA.Zn(II).α-KG structure
